# Results as given in the supplement of paper PMC12636428.
# Tested on: Saccharomyces cerevisiae
# Test: transcriptional activation domain activity (GFP:mCherry ratio, weighted mean of sorted bins, harmonized to initial dataset scale) (arbitrary fluorescence ratio units); higher = stronger transcriptional activation
# Conditions: beta-estradiol 1 µM; induction time 4 h
# Procedure, shortened: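 Activation activity, the read-weighted mean of bin median fluorescence averaged across barcodes, was linearly mapped onto the scale of the initial dataset. It was measured for barcoded protein tiles fused to an estradiol-inducible synthetic transcription factor at URA3 in GFP-reporter yeast diploids. Cultures diluted 1:5 into SC with 1 uM beta-estradiol were held 4 hours at 30 °C, sorted into 8 bins by GFP:mCherry ratio, and barcode-sequenced, and tiles under 50 reads were discarded.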
row,Sequence,transcriptional activation domain activity
1,MSFVDLHGIWGFFLPFIFSVINWYLNYVLILTLLFFLCHVRIWVLYLVNIYRE,55000
2,MSFYFNFYFPICLFFIFIFIVYFLFFIFYLFYFVVYFFLFLLAFIFVFFSVVY,41700
3,MSGFVRLLFTFDFRNVLVDILVLHIPLYLFPLFVLSEEFLLLFSFCLFVFLSF,31000
4,MSGIFSLSHLLVFRFFFFSIMRFLLVFLYFLFLTITIPHSLSLSLHLFHLFVS,52600
5,MSGQLPAGAPRASPADASPTGPRAPTSSRPACLSCHTHKKRCVWKSAAPGTPC,69400
6,MSGTNNSAAPPSYFDKAKDAMHSVVGNLTGHDDKETSSKPYVPTVSSACTAVV,61800
7,MSGVGKLYRMGCWHGSHLPFIYFGHFILPFLLCLRPILSSVFFIYFFHLLCFF,47000
8,MSHLLSSFLYDSLSFCFILLFGFDVILFPLFKYLWTTSSFYMFWMPDHLTLAV,73900
9,MSHPYRGERVHLQVGQNIWIVALIVLVQIFSTVRSNPGCSLLVSMTAKFWCPR,63800
10,MSHSASTSASTSTAAGEPSAKRMRLGTRSCAECRRRKVRCIVPPGARVCEGCS,75900
11,MSIAWLCYSSALCQGLRNTIFPSLNIFLMDPLSEWTARQWLFYLVWLLTIVWK,52800
12,MSIEKKFDDDSPIDIEPSRSYDLDTRRRAALAEIDNASFSRFHVKTVIVAGIG,64400
13,MSIFFSVIPPFFSFLPLMLFFFFFLGCLGNGSTFFVSTLLWMGGSIGLLSFYS,55600
14,MSIPPRLFYITFLLCFFNLLAYFHSLLFLSFNFPLQYLFTVNSVMHLVVSLPG,53900
15,MSIVLLCSHIFYTLLGSRRFIAACFFWSLSVPSHLSHICLSCIFLLLSFFLLC,53900
16,MSIVPVNSTYTLCILLMFVMLETTLYDPPLCGCMARLVTMFYGFFYGFFIYLI,61000
17,MSKRAAEGSDSAGSSKKVKQDDSASTVFQKDEEGNLYVDLSSMKRATVSVFRG,60400
18,MSKRLSFFFSGYLVLCGFSGVAFLFYFSLFNLVYYYPFLLLFNGFGGICIFLV,56800
19,MSLAHGHLFNRLQAVGPWDSLCCMGCDLSTLYLAALHSPWRVSWWRFLILGLL,58200
20,MSLASLAAQRSNCMKRAVGCVLVGRERRVISTGYNGTPRGIRNCGEGGCARCN,44500
21,MSLASLAAQRSNCMKRRVGCVVVRDKRVVSTGYNGTPRGLRNCGEGGCGRCNE,21100

row,Sequence,transcriptional activation domain activity
1,MSLAYLILGFPIPPFLPYFLDVVLSPLSRFSPLPLVFPFVLWCPTSLPLFTSF,51400
2,MSLFFLFFFFFSSFFSFFLLLPLCSVMFMPPVLSLYGVTMGFLPPPPFFFFLF,37900
3,MSLFFLLFPHVFAFILFLLSSFYSLSPIHSVFYPSFSLFPLSSLFYLTFPFSL,59400
4,MSLFLHSIIGGWLLHLFSLLCFLLFCFSAFCFSTTLFVTRRSGFVVGLWSLCL,52000
5,MSLFMLRTLPSFVCSSFCAMLHFCCSYSLLFYYWALSLPRWLPIPSGFIPIAF,60200
6,MSLFSILYFYYTICFICFLTFLTIKDLHIYLLLKFQITIFLFCYFFVCFLSPL,76600
7,MSLFSPCGETPLFLFPLFALTGLAPVLPPGSPLFFYLTLPLSFSFFHFFIFFF,79500
8,MSLFSPSPSLSLYNFKIRFCILLVPLILAFLFLIILISYCLSLFICFSSSLWF,54700
9,MSLGELAVLWVKRARHLGQSLLRVVLVSYAVDLPANCVALLRTGIRVLMLNMI,37300
10,MSLICIYQTIGTFAQICSWYFEMVHAGLSGSDIAQLARSNVNRIWWYKLLFTT,44500
11,MSLKEDDFGKDNSRNIESYTGRIFDVYIQKDSYSQSALDDMFPEAVVSTAACV,32700
12,MSLKEKLSIIHMKIRHRIEMTILLLHIFSIPLCLSFFMLCCSFPFFWPFVILY,77600
13,MSLKRRAHRKSRNGCRECKRRRIKCDETKPHCGHCVRHGIHCVYPESAGASPA,43000
14,MSLLLCFRVLIFIYPLRVSFLVCSWLYILLFYMSLFHSSVICPHVKMNLFISL,43900
15,MSLLMRVLCFCALGRPDLEDHWKSLQSEKAFEIVRTRVSSILDNIVTTAGVLL,60400
16,MSLLWIYFLSFFPFFCQNLTLLCFYAHIWTLRITPTFVLAFHLVYPLIIHLPV,27100
17,MSLLYYMVQSTTTMLLLTPPLCFTFFFIFFLLIFLFFIFYFLFLFYFINRDQS,47600
18,MSLPGGFIFCCLFIFIFFAPFYSTFLRFFFPSCFYLFFYICCSFFFFFFFFPP,38900
19,MSLPIHRLLSYTCSIIYLLVHHLYFVFSFFIPVYFIQAQFFFAAFPFILFFIC,66900
20,MSLRRSCLIFRWHVFMLLLMLFVRTWLVRLLVFLVFVVLMVRLLSLFPPFPLS,32200
21,MSLSEWLRMIWVCFGRSTSCTIVRFSFHMRLIHVLIVVVLGTVRRHWLWSFVY,35500

row,Sequence,transcriptional activation domain activity
1,MSLSFFFFSFFFLFFIIIFGRSRWLCYDGFGFFFFSFFLLMLAVFLFLLTYFT,50800
2,MSLVLLLFCLYLRCYSVLAMANGVSVLNAADYPFSVMITKPVMCGGALISLDP,69000
3,MSLWISILHTTFLVGYHSIILSLSSPYHYCYLSFLFPIYPFLLGLFVFSLLSS,56600
4,MSLYICNLVFSFFFFLFSFFLFLTLIFSSTRADCLWLLQERWYFVLLWNTLPF,45800
5,MSMFAMDFIIGHMVLFVLSPFTLVPYIDQLHSTMLFWLRPLLRLLRFYVHLYS,68200
6,MSMGIEFPFFTFRFSPSPLLLLLPFPPPFLPPFCLSAFFPSPLSPLPFPFLPS,51400
7,MSMLQVQWCYVMLYFDLSTSELLYFYLYLIFYSSFLFFNLWWLLNVDDASAPA,41500
8,MSNGFFLGLWVLIKRPFFFFFFHLFVMHGVLGGCWDLLVGFVCLHRGFWFLFW,70700
9,MSNGSSFVQCIDTRLCLLYSLVFREHMAFHPIISSFLFLIRLLILLASLFLFF,48500
10,MSNLELMRFLTKPDVKLELSVKIDDIYWNCIFSLRYREMYTASLLRYMVFFLR,52700
11,MSNTYRFVMEEPAEAGKGQQKKRARLVTACDNCRNKKIKCLRTPVSGTCESCK,27900
12,MSNVQTELPFFPSCFVFFRGSFSFFCLVLFPLMAFIIELSILSFRCLFLLFLL,61300
13,MSNVYNCHPALLCYLALPCPTHLCLLSSLFPSVVSTVHAFLLLFLALCPISWI,71400
14,MSNWLWIFLLLFFAFFCRSFTSCFIRLSVHIYTHCCMCSLGGLLVYLARSLFF,44200
15,MSPLDQVAEDDLSKRRKPHTKSRHGCIDCRRRRVKCGEEKPCCRTCVRRGVRC,44400
16,MSPLPSPLSFPLFLFFSLSLSNLVCMPHPLLSSLSLSTPPALFFLYLFFLATL,55100
17,MSPPCIVLKHLLFFLFSFHRILLQPVRRPSCFHISLYVLVVRLYWFRGILDFC,38300
18,MSPPEQSGGAPKHRACDECRARKLACSKEPDGCARCKRESQVCHYSAQKPMGR,< 6570
19,MSPPTLREVNVSLPRKFDTPDEPWHRYVTIDLLHYVLGYTLFHPFVSCVLVLC,35200
